{"source": "paper PMC8699212", "about": "“Mechanism of Zn^2+ and Ca^2+ Binding to Human S100A1” (Biomolecules, 2021)", "proteins": {"B1": {"name": "S100A1 (natural protein, human)", "chain": "GSELETAMETLINVFHAHSGKEGDKYKLSKKELKELLQTELSGFLDAQKDVDAVDKVMKELDENGDGEVDFQEYVVLVAALTVACNNFFWENS", "modifications": "N-formylmethionine (fMet) at the N-terminus", "notes": "theoretical mass 10,545.5 Da, measured 10,571.2 ± 1.4 Da (fMet at the N-terminus); also called recombinant S100A1; human S100A1; source: residual Ca2+ removed"}}, "biological_target": "the molecule itself", "experiment": "dynamic light scattering (DLS); 50 µM S100A1, 37 °C, without divalent metal ions or with 0.5-10 mM Ca2+ or Zn2+; hydrodynamic diameter (volume distribution); monomer to dimer", "data": [{"protein": "B1", "values": [{"measurement": "stoichiometry N", "value": 2}]}]}
